Tested on: PR
Assay: Endogenous PR expression in T47D cells (Northern / Western)
Type: cell-based, human
Protocol: The method was used as previously described, Lee & Chang. (1996) J. Biol. Chem. 271. 10405-10412, with some modifications. Briefly. 5 μg of pCMV-TR2 was transiently transfected into T47D cells and lysed in RIPA buffer (10 mM sodium phosphate, pH 7.0. 150 mM NaCL, 2 mM EDT A. 1% (w/v) Nonidet P-40, 0.1% (w/v) SDS. 1% (w/v) sodium deoxycholate) with freshly adding proteinase inhibitors. The soluble protein was quantified using the Bio-Rad Protein Assay reagent (Bio-Rad Laboratories) and 50 μg soluble proteins were loaded onto SDS/10% PAGE and then transferred to Immobion-P transfer membrane (Millipore). After the blocking reaction overnight, the membrane was incubated with […] anti-PR polyclonal antibody (H-190. Santa Cruz) in PBS(−) containing 0.1% Skim milk for 2 h at room temperature. The membrane was washed and then incubated in 15 μCi 125I] of protein-A (DuPont NEN)/30 ml of PBS(−) containing 0.1% Skim milk for 1 h at room temperature. The western blots were autoradiographed and quantitated by using Phosphorlmager.
RNA isolation and Northern blot analysis were performed as previously described. Young, et al., J. Biol. Chem. 273,20877-20885 (1998).
Next it was determined if TR2 could repress the ER endogenous target gene expression. PR was chosen because it is well studied as an E2-ER target gene in T47D cells. Misrahi et al., Biochem. Biophys. Res. Commun. 143, 740-748 (1987). […] Cells were then used for RNA isolation (Northern blot analysis) and lysate protein extraction (Western blot analysis). For RNA analysis, total RNAs were isolated, and Northern blots were performed using [32P] labeled PR cDNA probes. The membrane was autoradiographed. For Protein Western blot analysis, cells lysates were prepared and PR proteins were visualized by radioimmunoblot. The membrane was autoradiographed to Phosphorimager and was quantitated by ImageQuant software.

B1: TR2: human testicular orphan nuclear receptor 2, 603 amino acids (protein, UniProt P13056 1-603, looked up)
chain: MATIEEIAHQIIEQQMGEIVTEQQTGQKIQIVTALDHNTQGKQFILTNHDGSTPSKVILARQDSTPGKVFLTTPDAAGVNQLFFTTPDLSAQHLQLLTDNSPDQGPNKVFDLCVVCGDKASGRHYGAVTCEGCKGFFKRSIRKNLVYSCRGSKDCIINKHHRNRCQYCRLQRCIAFGMKQDSVQCERKPIEVSREKSSNCAASTEKIYIRKDLRSPLTATPTFVTDSESTRSTGLLDSGMFMNIHPSGVKTESAVLMTSDKAESCQGDLSTLANVVTSLANLGKTKDLSQNSNEMSMIESLSNDDTSLCEFQEMQTNGDVSRAFDTLAKALNPGESTACQSSVAGMEGSVHLITGDSSINYTEKEGPLLSDSHVAFRLTMPSPMPEYLNVHYIGESASRLLFLSMHWALSIPSFQALGQENSISLVKAYWNELFTLGLAQCWQVMNVATILATFVNCLHNSLQQDKMSTERRKLLMEHIFKLQEFCNSMVKLCIDGYEYAYLKAIVLFSPDHPSLENMEQIEKFQEKAYVEFQDYITKTYPDDTYRLSRLLLRLPALRLMNATITEELFFKGLIGNIRIDSVIPHILKMEPADYNSQIIGHSI
modifications: full-length
notes: human testicular orphan nuclear receptor 2, 603 amino acids
E2-induced PR expression at mRNA and protein levels (T47D cells and MCF7 cells, Example 2): repress | Expression of endogenous PR mRNA (T47D cells transfected with pCMV-TR2, 10 nM E2): clearly repressed | Endogenous PR expression (Western blot) (T47D cells, similar in MCF7): repress

From patent publication US20030235860A1, “Interactions between AR, ER, TR2, and TR4” (priority 1999, published 2003)
